The labels stand for the following.
T1: Human LRRC15 Protein, His Tag, Acro Biosystems (human, UniProt Q8TF66 22-538, limits assumed)
T1 construct: not shown: His tag
T1 sequence (looked up): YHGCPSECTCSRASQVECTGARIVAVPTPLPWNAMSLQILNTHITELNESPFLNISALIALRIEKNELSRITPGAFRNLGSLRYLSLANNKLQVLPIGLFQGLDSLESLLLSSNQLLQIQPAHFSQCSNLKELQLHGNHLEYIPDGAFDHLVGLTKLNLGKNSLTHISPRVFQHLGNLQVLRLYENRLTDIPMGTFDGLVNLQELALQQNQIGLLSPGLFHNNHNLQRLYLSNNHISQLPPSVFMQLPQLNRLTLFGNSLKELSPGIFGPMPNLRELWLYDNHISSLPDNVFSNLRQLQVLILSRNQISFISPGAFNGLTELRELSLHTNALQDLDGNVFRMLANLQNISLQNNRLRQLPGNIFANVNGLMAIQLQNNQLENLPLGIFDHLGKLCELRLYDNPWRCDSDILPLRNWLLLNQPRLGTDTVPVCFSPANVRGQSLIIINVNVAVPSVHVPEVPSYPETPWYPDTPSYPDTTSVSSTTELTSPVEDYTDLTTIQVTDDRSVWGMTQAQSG

T2: Human LRRC15 Protein, His Tag (Acro Biosystems) (human, UniProt Q8TF66 22-538, limits assumed)
T2 construct: Bought protein with His tag
T2 sequence (looked up): T1 sequence (looked up)

B1: MYT9508 (antibody, V domains shown)
VH: EVQLVESGGGLVQPGGSLRLSCTASGFSFSSSHWICWVRQAPGKGLEWVGCIYAGSIGSTYYASWAKGRFTISRDTSKNTVYLQMNSLRAEDTAVYYCARAPNDIYNYYFNLWGQGTLVTVSS
VL: EIVMTQSPSTLSASVGDRVIITCQDSENIYNYLAWYQQKPGKAPKLLIYYASTLASGVPSRFSGSGSGAEFTLTISSLQPDDFATYYCQSGYVSKSSTFGQGTKLTVL
notes: also called hu29F1 VL A25D
B2: MYT9530 (antibody, V domains shown)
VH: B1 VH
VL: B1 VL with D25A, S94D
notes: Humanized 29F1 with VL S94D; captured by anti-human Fc sensor
B3: MYT9519 (antibody, V domains shown)
VH: B1 VH
VL: B1 VL with D25A, A51D
notes: also called hu29F1 VL A51D
B4: MYT9526 (antibody, V domains shown)
VH: B1 VH
VL: B1 VL with D25A, S90D
notes: also called hu29F1 VL S90D
B5: MYT9509 (antibody, V domains shown)
VH: B1 VH
VL: B1 VL with D25A, S26D
notes: Humanized 29F1 with VL S26D; captured by anti-human Fc sensor
B6: MYT9532 (antibody, V domains shown)
VH: B1 VH
VL: B1 VL with D25A, S96D
notes: also called hu29F1 VL S96D
B7: MYT9525 (antibody, V domains shown)
VH: B1 VH
VL: B1 VL with D25A, Q89D
notes: also called hu29F1 VL Q89D
B8: MYT9524 (antibody, V domains shown)
VH: B1 VH
VL: B1 VL with D25A, S56D
notes: Humanized 29F1 with VL S56D; captured by anti-human Fc sensor
B9: MYT9533 (antibody, V domains shown)
VH: B1 VH
VL: B1 VL with D25A, S97D
notes: also called hu29F1 VL S97D
B10: MYT9522 (antibody, V domains shown)
VH: B1 VH
VL: B1 VL with D25A, L54D
notes: Humanized 29F1 with VL L54D; captured by anti-human Fc sensor
B11: MYT9514 (antibody, V domains shown)
VH: B1 VH
VL: B1 VL with D25A, N31D
notes: Humanized 29F1 with VL N31D; captured by anti-human Fc sensor
B12: MYT9511 (antibody, V domains shown)
VH: B1 VH
VL: B1 VL with D25A, N28D
notes: Humanized 29F1 with VL N28D; captured by anti-human Fc sensor
B13: MYT9510 (antibody, V domains shown)
VH: B1 VH
VL: B1 VL with D25A, E27D
notes: Humanized 29F1 with VL E27D; captured by anti-human Fc sensor
B14: MYT9520 (antibody, V domains shown)
VH: B1 VH
VL: B1 VL with D25A, S52D
notes: Humanized 29F1 with VL S52D; captured by anti-human Fc sensor
B15: MYT9516 (antibody, V domains shown)
VH: B1 VH
VL: B1 VL with D25A, L33D
notes: also called hu29F1 VL L33D
B16: MYT7912 (antibody, V domains shown)
VH: QQQLVESGGGLVKPGASLTLTCKASGFSFSGSYWICWVRQAPGKGLEWIGCINGGSLDITYYASWAKGRFTISKASSTTVTLQKTSLTAADTATYFCASHTSYTAYGNFYFNLWGPGTLVTVSS
VL: AQVLTQTASPVSAAVGGTVTINCQSSQSVLNNNWLAWYQQKPGQPPKLLIYDASSLASGVPSRFKGSGSGTQFTLTISDLESDDAATYYCQGEFSCGSADCNAFGGGTEVVVKG
notes: rabbit 24D9 VH D100H; chimeric, human constant regions
B17: MYT7915 (antibody, V domains shown)
VH: B16 VH with H100D, Y103H
VL: B16 VL
notes: rabbit 24D9 VH Y103H; chimeric, human constant regions
B18: MYT7919 (antibody, V domains shown)
VH: B16 VH with H100D, G107H
VL: B16 VL
notes: rabbit 24D9 VH G107H; chimeric, human constant regions
B19: MYT7918 (antibody, V domains shown)
VH: B16 VH with H100D, Y106H
VL: B16 VL
notes: rabbit 24D9 VH Y106H; chimeric, human constant regions
B20: MYT7923 (antibody, V domains shown)
VH: B16 VH with H100D, F111H
VL: B16 VL
notes: rabbit 24D9 VH F111H; chimeric, human constant regions
B21: MYT7913 (antibody, V domains shown)
VH: B16 VH with H100D, T101H
VL: B16 VL
notes: rabbit 24D9 VH T101H; chimeric, human constant regions
B22: MYT7917 (antibody, V domains shown)
VH: B16 VH with H100D, A105H
VL: B16 VL
notes: rabbit 24D9 VH A105H; chimeric, human constant regions
B23: MYT7916 (antibody, V domains shown)
VH: B16 VH with H100D, T104H
VL: B16 VL
notes: rabbit 24D9 VH T104H; chimeric, human constant regions
B24: MYT7920 (antibody, V domains shown)
VH: B16 VH with H100D, N108H
VL: B16 VL
notes: rabbit 24D9 VH N108H; chimeric, human constant regions
B25: MYT7914 (antibody, V domains shown)
VH: B16 VH with H100D, S102H
VL: B16 VL
notes: rabbit 24D9 VH S102H; chimeric, human constant regions
B26: MYT7921 (antibody, V domains shown)
VH: B16 VH with H100D, F109H
VL: B16 VL
notes: rabbit 24D9 VH F109H; chimeric, human constant regions
B27: MYT7922 (antibody, V domains shown)
VH: B16 VH with H100D, Y110H
VL: B16 VL
notes: rabbit 24D9 VH Y110H; chimeric, human constant regions
B28: MYT9753 (antibody, V domains shown)
VH: B1 VH
VL: B1 VL with D25A, S97E
notes: also called hu29F1 VL S97E
B29: MYT9754 (antibody, V domains shown)
VH: B1 VH
VL: B1 VL with D25A, T98E
notes: also called hu29F1 VL T98E
B30: MYT9745 (antibody, V domains shown)
VH: B1 VH
VL: B1 VL with D25A, Q89E
notes: also called hu29F1 VL Q89E
B31: MYT9752 (antibody, V domains shown)
VH: B1 VH
VL: B1 VL with D25A, S96E
notes: also called hu29F1 VL S96E

Changes are numbered by the printed parent chain. Numbers in names are those of the source.

The first test concerns the target T1, Human LRRC15 Protein, His Tag, Acro …. The experiment in a line: BLI; dissociation pH 7.4 black, pH 5.4 grey [D00022 FIG. 5B]. As for the experimental part: The resulting diluted supernatants were then captured on an anti-human Fc sensor (Forte Bio). A baseline was established using 1×PBST (50 mM Potassium Phosphate Buffer+150 mM NaCl+0.05% Tween 20) pH 7.4, and the […] was associated with 50 nM of LRRC15 (Human LRRC15 Protein, His Tag, Acro Biosystems) in 1×PBST pH 7.4 for 120 sec to generate an association curve. In the dissociation phase, the antibody-antigen complex on the sensor was exposed to 1×PBST pH 7.4 or pH 5.4, for 300 sec. Association and dissociation phase curves were examined for the starting ABPC antibody (with no substitutions) and each corresponding antibody variant at pH 5.4 and pH 7.4 to inform on two criteria: a) enhanced dissociation (i.e., higher koff values) at pH 5.4 due to histidine substitution compared to the starting ABPC, (with no substitutions), and b) reduced dissociation at pH 7.4 (i.e., lower koff values) compared to pH 5.4 in the antibody variant itself and with the starting ABPC (with no substitutions).
Briefly, CDRs in the 15G7 light chain were identified using the methods described in Example 9, and for each CDR, residues falling under either or both Kabat and IMGT CDR definitions were called as CDR residues. To generate pH-dependent sequence variants, individual amino acid residues within the light chain CDRs were systematically substituted with a histidine, one at a time (rabbit, MYT6122-6151). Desirable mutations were transferred to a humanized framework MYT8413-8487). After allowing for four days of protein expression, cell culture supernatants were collected, quantified by SDS-PAGE analysis, and the pH dependence of the variant was evaluated using biolayer interferometry (BLI) on an Octet RED 96e instrument (as described in Example 9). […]
For orientation: Biolayer interferometry detects binding as a change in optical thickness at a sensor tip.
Regarding B1, the binding result is on record as “binds”.

In the case of B2, the binding result is “binds”.

Take B3: the binding result is listed as “binds”.

Consider B4, for which the binding result is reported as “binds”.

B5: the binding result is “binds”.

For B6, the binding result was “binds”.

In the case of B7, the binding result is given as “binds”.

Consider B8, for which the binding result is “binds”.

As for B9, the binding result is listed as “binds”.

For the molecule B10, the binding result is recorded as “binds”.

Take B11: the binding result is listed as “binds”.

Regarding B12, the binding result was “binds”.

B13: the binding result was “binds”.

B14: the binding result is given as “binds”.

Turning to B15, the binding result is reported as “binds”.

The next test concerns the target T2, Human LRRC15 Protein, His Tag (Acro …). Nature of the test: BLI; dissociation pH 7.4 black, pH 5.4 grey [2/2); D00014 FIG. 2B (2/2].
Take B16: the binding result is listed as “no binding (tested: 50 nM LRRC15)”.

For B17, the binding result is recorded as “no binding (tested: 50 nM LRRC15)”.

As to B18, the binding result is “no binding (tested: 50 nM LRRC15)”.

Turning to B19, the binding result was “binds”.

Turning to B20, the binding result is reported as “binds”.

Consider B21, for which the binding result is recorded as “binds”.

Turning to B22, the binding result is recorded as “binds”.

Take B23: the binding result was “binds”.

As for B24, the binding result is “no binding (tested: 50 nM LRRC15)”.

As to B25, the binding result is reported as “binds”.

Turning to B26, the binding result is on record as “no binding (tested: 50 nM LRRC15)”.

B27: the binding result is “binds”.

For the next test, the target named is T1, Human LRRC15 Protein, His Tag, Acro …. The experiment in a line: BLI; dissociation pH 7.4 black, pH 5.4 grey [D00028 FIG. 7B].
For B28, the binding result is “binds”.

In the case of B29, the binding result is listed as “binds”.

Consider B30, for which the binding result is “binds”.

Take B31: the binding result is “binds”.

Values taken from patent US20250352661A1 (MYTHIC THERAPEUTICS, published 2025).
